Experimental data published in patent US20060052582A1 (published 2006).

B1: FLAG Nek6 (enzyme)
chain: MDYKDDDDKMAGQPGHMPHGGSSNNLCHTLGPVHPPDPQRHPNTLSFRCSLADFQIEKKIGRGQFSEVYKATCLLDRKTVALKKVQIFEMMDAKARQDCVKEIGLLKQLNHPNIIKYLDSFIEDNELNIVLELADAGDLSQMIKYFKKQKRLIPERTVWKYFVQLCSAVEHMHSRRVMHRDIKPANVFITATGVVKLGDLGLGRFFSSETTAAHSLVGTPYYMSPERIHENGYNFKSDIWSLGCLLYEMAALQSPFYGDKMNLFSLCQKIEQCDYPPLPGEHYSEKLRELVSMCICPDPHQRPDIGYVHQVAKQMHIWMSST
notes: Expressed in HEK293 cells; runs as a doublet (phosphorylated and unphosphorylated); also called wild type FLAG Nek6
B2: Nek6 (tag of the construct not stated) (enzyme)
chain: not shown

Experiments:
[1] = molecular target: T1, endogenous Nercc1 kinase of human cells (p120) (human, UniProt Q8TD19 2-979); experiment: anti-FLAG immunoaffinity purification from HEK293 cells; associated band identified by mass spectrometry
T1 construct: Endogenous 120 kDa protein
T1 sequence: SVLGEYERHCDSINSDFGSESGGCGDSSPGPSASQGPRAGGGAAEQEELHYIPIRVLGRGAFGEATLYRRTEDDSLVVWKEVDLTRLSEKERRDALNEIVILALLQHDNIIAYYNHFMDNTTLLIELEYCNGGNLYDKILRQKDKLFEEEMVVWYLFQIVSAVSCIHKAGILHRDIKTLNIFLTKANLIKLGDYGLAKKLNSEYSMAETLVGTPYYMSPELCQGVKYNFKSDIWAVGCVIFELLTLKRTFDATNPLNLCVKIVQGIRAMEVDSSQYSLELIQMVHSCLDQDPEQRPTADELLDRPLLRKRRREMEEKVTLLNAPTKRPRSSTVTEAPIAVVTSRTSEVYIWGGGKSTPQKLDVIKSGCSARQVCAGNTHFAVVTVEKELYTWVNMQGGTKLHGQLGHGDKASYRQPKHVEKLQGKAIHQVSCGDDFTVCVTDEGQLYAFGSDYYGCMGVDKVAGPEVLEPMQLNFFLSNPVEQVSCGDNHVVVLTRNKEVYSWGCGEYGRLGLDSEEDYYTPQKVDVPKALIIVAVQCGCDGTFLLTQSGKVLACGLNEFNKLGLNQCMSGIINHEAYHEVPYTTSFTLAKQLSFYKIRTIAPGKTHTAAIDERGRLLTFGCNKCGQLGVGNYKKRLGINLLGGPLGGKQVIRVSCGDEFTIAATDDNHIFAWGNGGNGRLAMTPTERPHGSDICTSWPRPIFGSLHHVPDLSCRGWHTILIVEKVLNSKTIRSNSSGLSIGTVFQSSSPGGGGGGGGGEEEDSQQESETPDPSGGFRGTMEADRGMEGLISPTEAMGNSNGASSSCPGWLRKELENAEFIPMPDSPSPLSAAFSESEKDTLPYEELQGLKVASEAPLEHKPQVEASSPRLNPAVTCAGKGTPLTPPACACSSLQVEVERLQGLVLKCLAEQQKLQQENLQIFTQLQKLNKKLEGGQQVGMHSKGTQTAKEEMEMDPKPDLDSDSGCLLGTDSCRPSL
Excerpt: Immunoaffinity purification of a FLAG Nek6 polypeptide overexpressed in HEK293 cells results in the recovery of an associated 120 kilodalton (kDa) polypeptide (p120). […] The 120 kDa band was excised, subjected to tryptic digestion in situ, microcapillary reverse-phase HPLC and peptide sequence analysis by electrospray ionization mass spectrometry. Spectra corresponding to multiple peptide sequences were identified on each of three successive open reading frames (ORFs) predicted by […] (Burge et al., J. Mol. Biol., 268: 78-94 (1997)) on the human BAC clone 201F1 (AC007055). […] Further analysis of the genomic sequences including and surrounding all three ORFs, using both […] (Borodovsky et al., Computers and Chem., 17: 123-133 (1993)) or […] yielded predictions containing all three original ORFs (AAD31938, AAD31939 and AAD31940) in polypeptides of around 100 kDa (107 kDa and 91 kDa, respectively).

HA wild type Ran = HA wild type Ran (UniProt P62826 1-216); experiment: co-expression and co-immunoprecipitation
Excerpt: To address more directly the relative binding in vivo of Nercc to Ran-GDP compared to Ran-GTP, the cytoplasmic wild type Nercc and a nuclear form of full length Nercc (NLS-Nercc) were each co-expressed with wild type Ran or Ran mutants that bind GDP (T24N) or GTP (G19V) exclusively; either Ran or Nercc was immunoprecipitated and probed for the association with the other polypeptide. The full-length wild type Nercc bound co-expressed wild type Ran and Ran T24N to a greater extent than RanG19V.

[2] = molecular target: T2, FLAG Nercc (full-length wild type Nercc1 kinase with FLAG epitope tag) (human, UniProt Q8TD19 1-979); experiment: binding test of co-expressed proteins; details not given
T2 construct: Expressed in HEK293 cells; also called FLAG Nercc1; FLAG Nercc full length (FL)
T2 sequence: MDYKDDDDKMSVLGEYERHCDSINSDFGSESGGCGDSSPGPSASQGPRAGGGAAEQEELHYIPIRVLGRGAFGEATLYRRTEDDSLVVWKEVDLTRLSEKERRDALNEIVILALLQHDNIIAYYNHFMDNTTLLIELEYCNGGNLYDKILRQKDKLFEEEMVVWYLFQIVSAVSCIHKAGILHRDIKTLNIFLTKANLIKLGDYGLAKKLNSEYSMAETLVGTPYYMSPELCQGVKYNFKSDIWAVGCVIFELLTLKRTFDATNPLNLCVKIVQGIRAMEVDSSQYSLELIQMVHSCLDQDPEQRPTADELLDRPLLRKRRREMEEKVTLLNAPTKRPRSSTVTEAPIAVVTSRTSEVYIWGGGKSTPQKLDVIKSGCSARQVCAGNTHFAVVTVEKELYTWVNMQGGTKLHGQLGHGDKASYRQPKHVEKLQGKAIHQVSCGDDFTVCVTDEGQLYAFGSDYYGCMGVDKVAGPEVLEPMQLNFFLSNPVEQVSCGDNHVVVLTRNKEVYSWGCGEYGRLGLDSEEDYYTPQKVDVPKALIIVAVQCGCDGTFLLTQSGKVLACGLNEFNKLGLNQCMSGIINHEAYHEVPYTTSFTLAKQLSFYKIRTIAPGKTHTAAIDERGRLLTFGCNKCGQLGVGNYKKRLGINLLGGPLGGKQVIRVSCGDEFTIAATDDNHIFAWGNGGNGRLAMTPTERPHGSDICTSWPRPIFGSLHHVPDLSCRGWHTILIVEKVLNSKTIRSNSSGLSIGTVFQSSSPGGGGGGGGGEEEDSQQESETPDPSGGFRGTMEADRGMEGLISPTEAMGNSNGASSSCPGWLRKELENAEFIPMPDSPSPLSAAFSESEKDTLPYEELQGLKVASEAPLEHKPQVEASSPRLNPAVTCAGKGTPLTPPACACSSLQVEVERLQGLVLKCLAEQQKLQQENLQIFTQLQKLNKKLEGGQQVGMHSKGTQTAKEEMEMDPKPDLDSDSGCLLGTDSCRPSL

FLAG Nercc (1-891) = molecular target: T3, FLAG Nercc (1-891) (human, UniProt Q8TD19 1-891); experiment: as above
T3 sequence: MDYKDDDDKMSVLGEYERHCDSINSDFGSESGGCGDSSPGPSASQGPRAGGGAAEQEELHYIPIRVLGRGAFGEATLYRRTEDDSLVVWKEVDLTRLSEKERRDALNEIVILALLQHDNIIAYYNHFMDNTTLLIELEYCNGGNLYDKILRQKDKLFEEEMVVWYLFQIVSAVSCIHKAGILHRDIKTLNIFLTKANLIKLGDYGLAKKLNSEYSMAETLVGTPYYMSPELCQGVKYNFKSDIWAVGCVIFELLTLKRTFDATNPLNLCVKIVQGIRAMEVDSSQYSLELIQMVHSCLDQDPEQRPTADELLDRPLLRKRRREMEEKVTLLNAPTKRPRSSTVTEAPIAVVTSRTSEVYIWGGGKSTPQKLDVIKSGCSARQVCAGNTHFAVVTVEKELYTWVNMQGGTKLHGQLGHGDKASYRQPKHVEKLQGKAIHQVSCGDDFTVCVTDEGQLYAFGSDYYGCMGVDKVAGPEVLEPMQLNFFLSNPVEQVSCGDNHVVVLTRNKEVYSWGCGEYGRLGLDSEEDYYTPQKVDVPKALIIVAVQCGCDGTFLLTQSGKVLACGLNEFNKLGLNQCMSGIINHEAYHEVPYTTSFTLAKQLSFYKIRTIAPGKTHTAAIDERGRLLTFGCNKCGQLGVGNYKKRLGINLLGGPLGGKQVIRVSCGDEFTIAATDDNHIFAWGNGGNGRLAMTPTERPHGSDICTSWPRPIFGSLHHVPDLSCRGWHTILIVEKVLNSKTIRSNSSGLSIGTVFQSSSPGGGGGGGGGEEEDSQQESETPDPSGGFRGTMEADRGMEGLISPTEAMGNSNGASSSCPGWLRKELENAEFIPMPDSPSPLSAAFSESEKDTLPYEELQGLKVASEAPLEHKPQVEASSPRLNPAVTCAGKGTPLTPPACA

| Binder | binding result [1] | binding result (HA wild type Ran) | binding result [2] | binding result (FLAG Nercc (1-891)) |
| --- | --- | --- | --- | --- |
| B1 | binds | – | – | – |
| B2 | – | no binding | binds | binds |
